# T1: EGFP-MOV10 (human, UniProt Q9HCE1 1-1003)
# T1 sequence: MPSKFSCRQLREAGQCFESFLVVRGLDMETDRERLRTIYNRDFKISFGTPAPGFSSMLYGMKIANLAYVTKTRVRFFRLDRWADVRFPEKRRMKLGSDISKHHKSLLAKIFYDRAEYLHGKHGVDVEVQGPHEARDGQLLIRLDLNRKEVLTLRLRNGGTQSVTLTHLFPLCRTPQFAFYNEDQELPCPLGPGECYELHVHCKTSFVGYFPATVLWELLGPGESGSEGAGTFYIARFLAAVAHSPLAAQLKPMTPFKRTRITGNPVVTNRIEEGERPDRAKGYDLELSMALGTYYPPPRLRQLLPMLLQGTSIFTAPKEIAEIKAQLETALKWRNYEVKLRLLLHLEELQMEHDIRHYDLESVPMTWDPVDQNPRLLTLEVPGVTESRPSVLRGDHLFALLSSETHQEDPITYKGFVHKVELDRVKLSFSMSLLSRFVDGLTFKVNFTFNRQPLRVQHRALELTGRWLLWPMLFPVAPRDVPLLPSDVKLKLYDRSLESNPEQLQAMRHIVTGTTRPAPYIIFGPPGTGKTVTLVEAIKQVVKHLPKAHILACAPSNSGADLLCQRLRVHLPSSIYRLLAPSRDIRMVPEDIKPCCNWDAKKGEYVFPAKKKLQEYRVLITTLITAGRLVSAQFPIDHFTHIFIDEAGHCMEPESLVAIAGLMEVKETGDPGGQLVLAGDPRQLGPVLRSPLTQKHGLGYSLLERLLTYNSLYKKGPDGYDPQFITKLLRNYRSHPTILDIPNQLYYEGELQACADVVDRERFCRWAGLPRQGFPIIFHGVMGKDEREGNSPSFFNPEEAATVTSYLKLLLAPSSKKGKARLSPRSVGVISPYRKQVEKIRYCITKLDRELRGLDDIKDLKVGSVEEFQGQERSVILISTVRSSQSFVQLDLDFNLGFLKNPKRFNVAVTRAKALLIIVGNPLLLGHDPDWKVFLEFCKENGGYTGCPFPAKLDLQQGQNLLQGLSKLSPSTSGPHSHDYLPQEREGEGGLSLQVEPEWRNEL
# B1: TUT4 (natural protein)
# chain: MEESKTLKSENHEPKKNVICEESKAVQVIGNQTLKARNDKSVKEIENSSPNRNSSKKNKQNDICIEKTEVKSCKVNAANLPGPKDLGLVLRDQSHCKAKKFPNSPVKAEKATISQAKSEKATSLQAKAEKSPKSPNSVKAEKASSYQMKSEKVPSSPAEAEKGPSLLLKDMRQKTELQQIGKKIPSSFTSVDKVNIEAVGGEKCALQNSPRSQKQQTCTDNTGDSDDSASGIEDVSDDLSKMKNDESNKENSSEMDYLENATVIDESALTPEQRLGLKQAEERLERDHIFRLEKRSPEYTNCRYLCKLCLIHIENIQGAHKHIKEKRHKKNILEKQEESELRSLPPPSPAHLAALSVAVIELAKEHGITDDDLRVRQEIVEEMSKVITTFLPECSLRLYGSSLTRFALKSSDVNIDIKFPPKMNHPDLLIKVLGILKKNVLYVDVESDFHAKVPVVVCRDRKSGLLCRVSAGNDMACLTTDLLTALGKIEPVFIPLVLAFRYWAKLCYIDSQTDGGIPSYCFALMVMFFLQQRKPPLLPCLLGSWIEGFDPKRMDDFQLKGIVEEKFVKWECNSSSATEKNSIAEENKAKADQPKDDTKKTETDNQSNAMKEKHGKSPLALETPNRVSLGQLWLELLKFYTLDFALEEYVICVRIQDILTRENKNWPKRRIAIEDPFSVKRNVARSLNSQLVYEYVVERFRAAYRYFACPQTKGGNKSTVDFKKREKGKISNKKPVKSNNMATNGCILLGETTEKINAEREQPVQCDEMDCTSQRCIIDNNNLLVNELDFADHGQDSSSLSTSKSSEIEPKLDKKQDDLAPSETCLKKELSQCNCIDLSKSPDPDKSTGTDCRSNLETESSHQSVCTDTSATSCNCKATEDASDLNDDDNLPTQELYYVFDKFILTSGKPPTIVCSICKKDGHSKNDCPEDFRKIDLKPLPPMTNRFREILDLVCKRCFDELSPPCSEQHNREQILIGLEKFIQKEYDEKARLCLFGSSKNGFGFRDSDLDICMTLEGHENAEKLNCKEIIENLAKILKRHPGLRNILPITTAKVPIVKFEHRRSGLEGDISLYNTLAQHNTRMLATYAAIDPRVQYLGYTMKVFAKRCDIGDASRGSLSSYAYILMVLYFLQQRKPPVIPVLQEIFDGKQIPQRMVDGWNAFFFDKTEELKKRLPSLGKNTESLGELWLGLLRFYTEEFDFKEYVISIRQKKLLTTFEKQWTSKCIAIEDPFDLNHNLGAGVSRKMTNFIMKAFINGRKLFGTPFYPLIGREAEYFFDSRVLTDGELAPNDRCCRVCGKIGHYMKDCPKRKSLLFRLKKKDSEEEKEGNEEEKDSRDVLDPRDLHDTRDFRDPRDLRCFICGDAGHVRRECPEVKLARQRNSSVAAAQLVRNLVNAQQVAGSAQQQGDQSIRTRQSSECSESPSYSPQPQPFPQNSSQSAAITQPSSQPGSQPKLGPPQQGAQPPHQVQMPLYNFPQSPPAQYSPMHNMGLLPMHPLQIPAPSWPIHGPVIHSAPGSAPSNIGLNDPSIIFAQPAARPVAIPNTSHDGHWPRTVAPNSLVNSGAVGNSEPGFRGLTPPIPWEHAPRPHFPLVPASWPYGLHQNFMHQGNARFQPNKPFYTQDRCATRRCRERCPHPPRGNVSE
# Biological target: T1, EGFP-MOV10
# Experiment: co-IP
binder,measurement,value
B1,fold enrichment in the co-IP relative to TUT7,~10 fold
